Experimental data taken from patent publication US20190151446A1 (LIVERPOOL SCHOOL OF TROPICAL MEDICINE, published 2019).
Numbering of substitutions follows the chain as printed. Names may count otherwise.

T1: human FcγRIIB (human, UniProt P31994 46-217)
T1 construct: Bought protein, construct not described
T1 sequence (looked up): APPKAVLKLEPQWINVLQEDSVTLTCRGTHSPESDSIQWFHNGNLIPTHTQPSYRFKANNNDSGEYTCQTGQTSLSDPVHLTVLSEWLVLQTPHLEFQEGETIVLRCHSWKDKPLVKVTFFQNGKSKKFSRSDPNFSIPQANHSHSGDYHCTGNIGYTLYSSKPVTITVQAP

T2: human FcγRIIA (human, UniProt P12318 36-218)
T2 construct: Bought protein, construct not described
T2 sequence (looked up): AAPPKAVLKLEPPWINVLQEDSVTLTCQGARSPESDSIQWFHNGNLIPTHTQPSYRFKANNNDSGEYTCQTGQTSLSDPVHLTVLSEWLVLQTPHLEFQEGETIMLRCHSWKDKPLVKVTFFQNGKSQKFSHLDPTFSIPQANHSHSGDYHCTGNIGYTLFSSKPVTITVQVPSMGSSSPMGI

T3: soluble recombinant tetrameric human DC-SIGN (human, UniProt Q9NNX6 66-404, limits assumed)
T3 construct: also called Dendritic Cell-Specific Intercellular adhesion molecule-3-Grabbing Non-integrin
T3 sequence (looked up): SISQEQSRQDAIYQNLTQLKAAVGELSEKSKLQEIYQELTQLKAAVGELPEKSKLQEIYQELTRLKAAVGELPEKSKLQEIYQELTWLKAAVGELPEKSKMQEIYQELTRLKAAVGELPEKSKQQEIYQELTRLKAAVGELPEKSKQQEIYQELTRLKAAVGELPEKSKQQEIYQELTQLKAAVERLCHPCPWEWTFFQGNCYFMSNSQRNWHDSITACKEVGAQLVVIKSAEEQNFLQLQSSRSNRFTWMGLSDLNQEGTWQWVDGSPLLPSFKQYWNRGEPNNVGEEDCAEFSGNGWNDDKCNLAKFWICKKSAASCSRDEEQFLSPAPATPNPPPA

B1: human Siglec-1 (receptor, UniProt Q9BZZ2 20-1641, looked up)
chain: SWGVSSPQDVQGVKGSCLLIPCIFSFPADVEVPDGITAIWYYDYSGQRQVVSHSADPKLVEARFRGRTEFMGNPEHRVCNLLLKDLQPEDSGSYNFRFEISEVNRWSDVKGTLVTVTEEPRVPTIASPVELLEGTEVDFNCSTPYVCLQEQVRLQWQGQDPARSVTFNSQKFEPTGVGHLETLHMAMSWQDHGRILRCQLSVANHRAQSEIHLQVKYAPKGVKILLSPSGRNILPGELVTLTCQVNSSYPAVSSIKWLKDGVRLQTKTGVLHLPQAAWSDAGVYTCQAENGVGSLVSPPISLHIFMAEVQVSPAGPILENQTVTLVCNTPNEAPSDLRYSWYKNHVLLEDAHSHTLRLHLATRADTGFYFCEVQNVHGSERSGPVSVVVNHPPLTPVLTAFLETQAGLVGILHCSVVSEPLATLVLSHGGHILASTSGDSDHSPRFSGTSGPNSLRLEIRDLEETDSGEYKCSATNSLGNATSTLDFHANAARLLISPAAEVVEGQAVTLSCRSGLSPTPDARFSWYLNGALLHEGPGSSLLLPAASSTDAGSYHCRARDGHSASGPSSPAVLTVLYPPRQPTFTTRLDLDAAGAGAGRRGLLLCRVDSDPPARLQLLHKDRVVATSLPSGGGCSTCGGCSPRMKVTKAPNLLRVEIHNPLLEEEGLYLCEASNALGNASTSATFNGQATVLAIAPSHTLQEGTEANLTCNVSREAAGSPANFSWFRNGVLWAQGPLETVTLLPVARTDAALYACRILTEAGAQLSTPVLLSVLYPPDRPKLSALLDMGQGHMALFICTVDSRPLALLALFHGEHLLATSLGPQVPSHGRFQAKAEANSLKLEVRELGLGDSGSYRCEATNVLGSSNTSLFFQVRGAWVQVSPSPELQEGQAVVLSCQVHTGVPEGTSYRWYRDGQPLQESTSATLRFAAITLTQAGAYHCQAQAPGSATTSLAAPISLHVSYAPRHVTLTTLMDTGPGRLGLLLCRVDSDPPAQLRLLHGDRLVASTLQGVGGPEGSSPRLHVAVAPNTLRLEIHGAMLEDEGVYICEASNTLGQASASADFDAQAVNVQVWPGATVREGQLVNLTCLVWTTHPAQLTYTWYQDGQQRLDAHSIPLPNVTVRDATSYRCGVGPPGRAPRLSRPITLDVLYAPRNLRLTYLLESHGGQLALVLCTVDSRPPAQLALSHAGRLLASSTAASVPNTLRLELRGPQPRDEGFYSCSARSPLGQANTSLELRLEGVRVILAPEAAVPEGAPITVTCADPAAHAPTLYTWYHNGRWLQEGPAASLSFLVATRAHAGAYSCQAQDAQGTRSSRPAALQVLYAPQDAVLSSFRDSRARSMAVIQCTVDSEPPAELALSHDGKVLATSSGVHSLASGTGHVQVARNALRLQVQDVPAGDDTYVCTAQNLLGSISTIGRLQVEGARVVAEPGLDVPEGAALNLSCRLLGGPGPVGNSTFAWFWNDRRLHAEPVPTLAFTHVARAQAGMYHCLAELPTGAAASAPVMLRVLYPPKTPTMMVFVEPEGGLRGILDCRVDSEPLASLTLHLGSRLVASSQPQGAPAEPHIHVLASPNALRVDIEALRPSDQGEYICSASNVLGSASTSTYFGVRALHRLHQFQQ
notes: Construct not described; also called sialoadhesin; CD169
B2: D221N mutant of hexa-Fc (Fc fusion)
chain: NKTHTCPPCPAPELLGGPSVFLFPPKPKDTLMISRTPEVTCVVVDVSHEDPEVKFNWYVDGVEVHNAKTKPREEQYNSTYRVVSVLTVCLQDWLNGKEYKCKVSNKALPAPIEKTISKAKGQPREPQVYTLPPSREEMTKNQVSLTCLVKGFYPSDIAVEWESNGQPENNYKTTPPVLDSDGSFFLYSKLTVDKSRWQQGNVFSCSVMHEALHNHYTQKSLSLSPGKLVLGPPLYNVSLVMSDTAGTCY
modifications: N-linked glycans at Asn221 (N1), Asn297 (N77) and Asn563 (N236)
notes: Made on the hexa-Fc template in CHO-K1 cells; multimeric, hyper-sialylated
B3: D221N/N297A mutant of hexa-Fc (Fc fusion)
chain: B2 chain with N77A
modifications: N-linked glycans at Asn221 (N1) and Asn563 (N236)
notes: Made on the hexa-Fc template in CHO-K1 cells; multimeric
B4: D221N/N563A mutant of hexa-Fc (Fc fusion)
chain: B2 chain with N236A
modifications: N-linked glycans at Asn221 (N1) and Asn297 (N77)
notes: Made on the hexa-Fc template in CHO-K1 cells; runs as higher order multimers approximating dodecamers; also called D221/N563A; D221N/N563A dodecamer
B5: N297A mutant of hexa-Fc (Fc fusion)
chain: B2 chain with N1D, N77A
modifications: N-linked glycan at Asn563 (N236)
notes: Made on the hexa-Fc template in CHO-K1 cells; still multimeric (pentamers and hexamers)
B6: D221N/N297A/N563A mutant of hexa-Fc (Fc fusion)
chain: B2 chain with N77A, N236A
modifications: N-linked glycan at Asn221 (N1)
notes: Made on the hexa-Fc template in CHO-K1 cells; higher order multimers; also called D221/N297A/N563A
B7: N297A/N563A mutant of hexa-Fc (Fc fusion)
chain: B2 chain with N1D, N77A, N236A
modifications: no glycans attached
notes: Made on the hexa-Fc template in CHO-K1 cells; Results-1 says it cannot form oligomers, Results-2 says it forms higher order multimers; also called glycan deficient mutant; N297A/N563A double-knockout

Tests used:
[1] = target: T4, monomeric IgG1-Fc control (human, UniProt P01857-1 104-330 = IgG part, limits assumed, N-linked glycan at Asn297); assay: ELISA (FIG. 12 B)
T4 construct: domain: Fc; also called wildtype IgG-Fc; wildtype IgG1-Fc

human FcγRIIIB = target: T5, human FcγRIIIB (human, UniProt O75015 17-200); assay: ELISA, receptor coated on plate
T5 construct: Bought protein, construct not described
T5 sequence (O75015 17-200 limits assumed): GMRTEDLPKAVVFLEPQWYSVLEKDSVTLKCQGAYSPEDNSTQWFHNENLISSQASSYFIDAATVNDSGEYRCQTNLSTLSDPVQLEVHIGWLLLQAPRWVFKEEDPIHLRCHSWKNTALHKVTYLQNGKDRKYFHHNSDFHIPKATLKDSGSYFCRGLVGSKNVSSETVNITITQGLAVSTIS
Method: (§1) ELISAs were used to investigate the binding of oligomeric Fc mutants to FcγRI, FcγRIIA, FcγRIIB, FcγRIIIA and FcγRIIIB (all from R&D laboratories). Receptors were coated down to ELISA plates (Nunc) in carbonate buffer pH9 (Sigma-Aldrich) at 2 μg/ml overnight at 4° C. Plates were then blocked in PBS/0.1% Tween-20 (PBST) containing 4% skimmed milk (Tesco). Plates were then washed three times in PBS/0.1% Tween-20 (PBST) before adding Fc mutants at the indicated concentrations in PBST overnight at 4° C. Plates were washed as above and incubated for 2 h with 1:500 dilution of an alkaline phosphatase conjugated goat Fab′₂ anti-human IgG (Jackson Laboratories). Plates were washed as above and developed for 15 min with 100 μl of a Sigmafast p-nitrophenyl phosphate solution (Sigma-Aldrich). Plates were read at 405 nm and data plotted with Graphpad prism.

human FcγRI = target: T6, human FcγRI (human, UniProt P12314 16-288); assay: ELISA, receptor coated on plate
T6 construct: Bought protein, construct not described
T6 sequence (P12314 16-288 limits assumed): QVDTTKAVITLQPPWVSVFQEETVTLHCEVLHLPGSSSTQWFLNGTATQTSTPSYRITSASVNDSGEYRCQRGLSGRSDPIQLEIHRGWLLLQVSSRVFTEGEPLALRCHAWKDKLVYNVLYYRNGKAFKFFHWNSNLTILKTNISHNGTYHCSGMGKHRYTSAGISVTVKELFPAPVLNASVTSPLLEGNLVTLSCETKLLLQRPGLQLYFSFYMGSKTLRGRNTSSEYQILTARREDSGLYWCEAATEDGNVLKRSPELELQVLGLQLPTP
Method: as §1

human FcγRIIB = target: T1, human FcγRIIB; assay: ELISA, receptor coated on plate
Method: as §1

human FcγRIIA = target: T2, human FcγRIIA; assay: ELISA, receptor coated on plate
Method: as §1

human FcγRIIIA [2] = target: T7, human FcγRIIIA (human, UniProt P08637 17-208); assay: ELISA, receptor coated on plate
T7 construct: Bought protein, construct not described; also called FcgRIIIA
T7 sequence (P08637 17-208 limits assumed): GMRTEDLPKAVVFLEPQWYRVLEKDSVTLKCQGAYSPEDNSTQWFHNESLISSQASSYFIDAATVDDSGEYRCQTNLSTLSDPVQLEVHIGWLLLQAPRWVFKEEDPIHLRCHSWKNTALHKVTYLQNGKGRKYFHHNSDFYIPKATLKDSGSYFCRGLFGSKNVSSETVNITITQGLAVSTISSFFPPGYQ
Method: as §1

[3] = target: T3, soluble recombinant tetrameric human …; assay: ELISA, soluble tetrameric human DC-SIGN (FIG. 12 A)
human FcγRIIIA [4] = target: T7, human FcγRIIIA; assay: ELISA, receptor coated on plate (FIG. 4)
Method: as §1

human Siglec-1 = target: B1; assay: ELISA (FIG. 12 B)

Row | binding result [1] | binding result (human FcγRIIIB) | binding result (human FcγRI) | binding result (human FcγRIIB) | binding result (human FcγRIIA) | binding result (human FcγRIIIA [2]) | binding result [3] | binding result (human FcγRIIIA [4]) | binding result (human Siglec-1) | Binder
1 | no binding | – | – | – | – | – | – | – | – | B1
2 | – | no binding | no binding | no binding | no binding | no binding | – | – | – | B2
3 | – | no binding | no binding | no binding | no binding | no binding | no binding | – | – | B3
4 | – | binds | binds | binds | binds | – | – | binds | – | B4
5 | – | no binding | no binding | no binding | no binding | no binding | – | – | – | B5
6 | – | – | – | – | – | – | no binding | – | – | B6
7 | – | – | – | – | – | – | – | – | no binding | B7
